B1: bovine tumor necrosis factor-alpha (TNF-alpha) (ligand, UniProt Q06599 78-234, looked up)
chain: LRSSSQASSNKPVAHVVADINSPGQLRWWDSYANALMANGVKLEDNQLVVPADGLYLIYSQVLFRGQGCPSTPLFLTHTISRIAVSYQTKVNILSAIKSPCHRETPEWAEAKPWYEPIYQGGVFQLEKGDRLSAEINLPDYLDYAESGQVYFGIIAL
notes: Not purified; The whey samples served as the source of bovine TNF-alpha; also called bovine TNF-α; bovine TNF
B2: soluble bovine tumor necrosis factor receptor-I (TNF-RI) (receptor)
chain: LVPHPGDLEKRESPCPQGKYNHPQNSTICCTKCHKGTYLYNDCPGPGRDTDCRVCAPGTYTALENHLRRCLSCSRCRDEMFQVEISPCVVDRDTVCGCRKNQYREYWGETGFRCLNCSLCPNGTVNIPCQERQDTICHCHMGFFLKGAKCISCHDCKNKECEKLCPTRPSTGKDSQDPGTT

Assays:
[1] = molecular target: B2; test: inferred from the TNF cytotoxicity inhibition assay on WEHI 164 cells; no direct binding assay
[2] = molecular target: B1; test: cell-based or functional assay

| Binder | binding result [1] | fold potency at blocking bovine TNF-α, against MAb BC9 [2] |
| --- | --- | --- |
| B1 | binds |  |
| B2 |  | > 2 fold (vs MAb BC9) |

Source: patent US20020076765A1 (IOWA STATE UNIVERSITY RESEARCH FOUNDATION, published 2002)
